From publication PMC5755487, “Combining Chemical Cross-linking and Mass Spectrometry of Intact Protein Complexes to Study the Architecture of Multi-subunit Protein Assemblies” (Journal of Visualized Experiments : JoVE, 2017)
Where “and” joins values, the source holds several entries; their conditions need not be identical. Equal entries are not always repeated. One block for each molecule: values may come before it.

B2: large subunit of carbamoyl phosphate synthase (CPS) from Escherichia coli (enzyme)
chain: MPKRTDIKSILILGAGPIVIGQACEFDYSGAQACKALREEGYRVILVNSNPATIMTDPEMADATYIEPIHWEVVRKIIEKERPDAVLPTMGGQTALNCALELERQGVLEEFGVTMIGATADAIDKAEDRRRFDVAMKKIGLETARSGIAHTMEEALAVAADVGFPCIIRPSFTMGGSGGGIAYNREEFEEICARGLDLSPTKELLIDESLIGWKEYEMEVVRDKNDNCIIVCSIENFDAMGIHTGDSITVAPAQTLTDKEYQIMRNASMAVLREIGVETGGSNVQFAVNPKNGRLIVIEMNPRVSRSSALASKATGFPIAKVAAKLAVGYTLDELMNDITGGRTPASFEPSIDYVVTKIPRFNFEKFAGANDRLTTQMKSVGEVMAIGRTQQESLQKALRGLEVGATGFDPKVSLDDPEALTKIRRELKDAGADRIWYIADAFRAGLSVDGVFNLTNIDRWFLVQIEELVRLEEKVAEVGITGLNADFLRQLKRKGFADARLAKLAGVREAEIRKLRDQYDLHPVYKRVDTCAAEFATDTAYMYSTYEEECEANPSTDREKIMVLGGGPNRIGQGIEFDYCCVHASLALREDGYETIMVNCNPETVSTDYDTSDRLYFEPVTLEDVLEIVRIEKPKGVIVQYGGQTPLKLARALEAAGVPVIGTSPDAIDRAEDRERFQHAVERLKLKQPANATVTAIEMAVEKAKEIGYPLVVRPSYVLGGRAMEIVYDEADLRRYFQTAVSVSNDAPVLLDHFLDDAVEVDVDAICDGEMVLIGGIMEHIEQAGVHSGDSACSLPAYTLSQEIQDVMRQQVQKLAFELQVRGLMNVQFAVKNNEVYLIEVNPRAARTVPFVSKATGVPLAKVAARVMAGKSLAEQGVTKEVIPPYYSVKEVVLPFNKFPGVDPLLGPEMRSTGEVMGVGRTFAEAFAKAQLGSNSTMKKHGRALLSVREGDKERVVDLAAKLLKQGFELDATHGTAIVLGEAGINPRLVNKVHEGRPHIQDRIKNGEYTYIINTTSGRRAIEDSRVIRRSALQYKVHYDTTLNGGFATAMALNADATEKVISVQEMHAQIK
notes: carbamoyl phosphate synthase large subunit, Escherichia coli; also called large CPS subunit

Tests used:
[1] = target: RvB2 subunit of the RvB1/B2 complex from Chaetomium thermophilum (Chaetomium thermophilum); assay: native MS; purified complex exchanged into 200 mM ammonium acetate, nano-electrospray, Q-ToF instrument; intact complexes and sub-complexes
[2] = target: B2; assay: as above; conditions: both partners purified
[3] = target: the molecule itself; assay: cross-linking; purified complex with BS3 (0.5-5 mM titrated), 25 °C, 1 h; SDS-PAGE, in-gel trypsin digestion, LC-MS/MS, pLink search

stoichiometry N (RvB1 per RvB2 (3:3)) [1]: 1
stoichiometry N (RvB1 per RvB2 (6:6)) [1]: 1
Molecule: RvB1 subunit of the RvB1/B2 complex from Chaetomium thermophilum (natural protein)

B1: small subunit of carbamoyl phosphate synthase (CPS) from Escherichia coli (enzyme)
chain: MIKSALLVLEDGTQFHGRAIGATGSAVGEVVFNTSMTGYQEILTDPSYSRQIVTLTYPHIGNVGTNDADEESSQVHAQGLVIRDLPLIASNFRNTEDLSSYLKRHNIVAIADIDTRKLTRLLREKGAQNGCIIAGDNPDAALALEKARAFPGLNGMDLAKEVTTAEAYSWTQGSWTLTGGLPEAKKEDELPFHVVAYDFGAKRNILRMLVDRGCRLTIVPAQTSAEDVLKMNPDGIFLSNGPGDPAPCDYAITAIQKFLETDIPVFGICLGHQLLALASGAKTVKMKFGHHGGNHPVKDVEKNVVMITAQNHGFAVDEATLPANLRVTHKSLFDGTLQGIHRTDKPAFSFQGHPEASPGPHDAAPLFDHFIELIEQYRKTAK
notes: carbamoyl phosphate synthase small subunit, Escherichia coli; also called small CPS subunit
stoichiometry N [2]: 1 small per large subunit (1:1) and 1 small per large subunit (2:2)

Molecule: B2
binding result [3]: binds
